In PMC4493074:

Target: CD31 (PECAM-1) (Homo sapiens) (UniProt P16284)
Details: 5-(N-naphthylcarboxyamide)-2'-deoxyuridine (NapdU) replaces dT; SOMAmer; Flow cytometry: 1x PBS (pH 7.4), 2% FBS, 5 mM MgCl2, 0.2 mM dextran sulfate, room temperature, 15 min; aptamers heated at 95 C 5 min and cooled; Kd assay …

Chain of UniProt P16284 (P16284 28-601): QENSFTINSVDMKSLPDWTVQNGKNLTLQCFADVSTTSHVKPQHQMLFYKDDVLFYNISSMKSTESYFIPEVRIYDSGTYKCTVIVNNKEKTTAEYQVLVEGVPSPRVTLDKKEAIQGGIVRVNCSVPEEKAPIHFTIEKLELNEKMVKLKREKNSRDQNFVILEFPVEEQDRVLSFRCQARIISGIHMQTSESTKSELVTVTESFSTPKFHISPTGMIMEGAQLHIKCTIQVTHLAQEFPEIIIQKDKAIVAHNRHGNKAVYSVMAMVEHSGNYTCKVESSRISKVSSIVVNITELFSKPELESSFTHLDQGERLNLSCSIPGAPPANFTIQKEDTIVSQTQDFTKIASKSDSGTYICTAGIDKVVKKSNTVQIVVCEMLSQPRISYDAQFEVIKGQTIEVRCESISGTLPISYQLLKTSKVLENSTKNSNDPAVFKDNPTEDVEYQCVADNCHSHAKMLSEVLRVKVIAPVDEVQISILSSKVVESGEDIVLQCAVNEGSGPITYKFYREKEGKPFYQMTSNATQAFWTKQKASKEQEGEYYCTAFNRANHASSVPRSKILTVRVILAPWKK

Work on “TCAGCCGCCAGCCAGTTCGUAGAGGAGGUACGUAAUGUCUGGGUAUACCCCGAUAAUUGACCAGAGCACCACAGAG [AT-1 (CD31 aptamer clone 1)]” yielded a Kd of 2.28 nM.
